Experimental data: patent publication US20200390859A1

Target: mouse FGFR4/β-klotho complex co-expressed in rat L6 myoblast cells (mouse) (UniProt Q03142)
Experiment: cell-based or functional assay

Sequence of mouse FGFR4/β-klotho complex co-expressed in rat L6 myoblast cells (mouse) (Q03142 17-799, chain 1 of 2): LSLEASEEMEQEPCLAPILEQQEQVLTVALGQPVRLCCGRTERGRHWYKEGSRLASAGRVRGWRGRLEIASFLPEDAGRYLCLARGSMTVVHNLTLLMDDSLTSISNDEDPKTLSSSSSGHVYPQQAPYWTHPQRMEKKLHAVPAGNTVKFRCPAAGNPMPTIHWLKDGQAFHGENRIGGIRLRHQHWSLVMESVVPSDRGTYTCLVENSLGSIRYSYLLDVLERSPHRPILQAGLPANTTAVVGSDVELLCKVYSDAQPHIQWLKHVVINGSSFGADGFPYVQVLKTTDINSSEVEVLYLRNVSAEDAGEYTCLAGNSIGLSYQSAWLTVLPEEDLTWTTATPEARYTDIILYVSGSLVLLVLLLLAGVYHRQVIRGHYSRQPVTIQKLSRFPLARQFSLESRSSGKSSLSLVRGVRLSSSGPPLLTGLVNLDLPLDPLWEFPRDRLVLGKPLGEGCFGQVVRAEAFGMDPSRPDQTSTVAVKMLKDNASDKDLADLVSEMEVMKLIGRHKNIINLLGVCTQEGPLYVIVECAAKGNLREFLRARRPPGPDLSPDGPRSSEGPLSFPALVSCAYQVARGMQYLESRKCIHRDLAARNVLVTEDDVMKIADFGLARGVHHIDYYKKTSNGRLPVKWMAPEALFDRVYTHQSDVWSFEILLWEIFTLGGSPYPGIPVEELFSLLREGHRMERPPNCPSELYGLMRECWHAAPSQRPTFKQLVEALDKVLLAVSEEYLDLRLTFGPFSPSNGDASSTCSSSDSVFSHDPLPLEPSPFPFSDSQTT
Sequence of mouse FGFR4/β-klotho complex co-expressed in rat L6 myoblast cells (mouse) (Q99N32 whole entry, chain 2 of 2, further chain): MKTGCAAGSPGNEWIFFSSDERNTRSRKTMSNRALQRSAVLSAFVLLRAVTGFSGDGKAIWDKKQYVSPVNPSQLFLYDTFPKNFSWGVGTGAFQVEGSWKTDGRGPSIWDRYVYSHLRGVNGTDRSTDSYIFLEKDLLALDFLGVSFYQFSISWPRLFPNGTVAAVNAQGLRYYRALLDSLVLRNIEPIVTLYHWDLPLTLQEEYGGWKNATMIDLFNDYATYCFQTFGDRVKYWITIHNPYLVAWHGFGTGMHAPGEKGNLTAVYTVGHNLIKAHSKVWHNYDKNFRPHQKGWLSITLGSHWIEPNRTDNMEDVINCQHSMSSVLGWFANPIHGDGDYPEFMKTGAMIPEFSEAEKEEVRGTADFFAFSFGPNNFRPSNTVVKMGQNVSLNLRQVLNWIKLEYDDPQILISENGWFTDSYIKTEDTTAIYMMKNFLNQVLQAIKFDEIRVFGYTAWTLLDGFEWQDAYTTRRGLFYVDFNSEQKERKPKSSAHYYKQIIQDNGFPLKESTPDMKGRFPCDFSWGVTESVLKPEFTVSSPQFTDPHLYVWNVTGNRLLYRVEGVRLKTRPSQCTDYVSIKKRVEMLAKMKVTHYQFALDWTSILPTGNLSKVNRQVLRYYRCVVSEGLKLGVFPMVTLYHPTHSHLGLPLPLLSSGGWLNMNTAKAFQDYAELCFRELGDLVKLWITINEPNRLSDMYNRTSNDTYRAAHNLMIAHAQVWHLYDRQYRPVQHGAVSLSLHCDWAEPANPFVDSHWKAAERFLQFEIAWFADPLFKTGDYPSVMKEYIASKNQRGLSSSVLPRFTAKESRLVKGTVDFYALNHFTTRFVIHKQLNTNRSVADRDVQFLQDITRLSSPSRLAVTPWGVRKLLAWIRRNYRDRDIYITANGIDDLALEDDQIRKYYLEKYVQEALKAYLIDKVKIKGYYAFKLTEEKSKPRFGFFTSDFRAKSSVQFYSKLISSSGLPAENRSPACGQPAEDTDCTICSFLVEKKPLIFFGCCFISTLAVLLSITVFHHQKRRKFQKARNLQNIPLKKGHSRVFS

Substance: FGF19 (human fibroblast growth factor 19, wild type) (from UniProt O95750 25-216) (ligand)
- EC50 (pM), ELK1 luciferase reporter in L6 cells transfected with mouse FGFR4 and β-klotho: 52.5 pM
- Emax (fold potentiation), ELK1 luciferase reporter in L6 cells transfected with mouse FGFR4 and β-klotho (fold potentiation): 1.82
